Data taken from IntAct's records for PubMed 15784897.

Legend:
fyn_human FYN = fyn_human FYN (UniProt P06241)
grb2_human GRB2 = grb2_human GRB2 (UniProt P62993)
lck_human LCK = lck_human LCK (UniProt P06239)
hck_human HCK = hck_human HCK (UniProt P08631)

Measured: effect of a mutation on the interaction

hck_human HCK, sequence (P08631 whole entry, looked up): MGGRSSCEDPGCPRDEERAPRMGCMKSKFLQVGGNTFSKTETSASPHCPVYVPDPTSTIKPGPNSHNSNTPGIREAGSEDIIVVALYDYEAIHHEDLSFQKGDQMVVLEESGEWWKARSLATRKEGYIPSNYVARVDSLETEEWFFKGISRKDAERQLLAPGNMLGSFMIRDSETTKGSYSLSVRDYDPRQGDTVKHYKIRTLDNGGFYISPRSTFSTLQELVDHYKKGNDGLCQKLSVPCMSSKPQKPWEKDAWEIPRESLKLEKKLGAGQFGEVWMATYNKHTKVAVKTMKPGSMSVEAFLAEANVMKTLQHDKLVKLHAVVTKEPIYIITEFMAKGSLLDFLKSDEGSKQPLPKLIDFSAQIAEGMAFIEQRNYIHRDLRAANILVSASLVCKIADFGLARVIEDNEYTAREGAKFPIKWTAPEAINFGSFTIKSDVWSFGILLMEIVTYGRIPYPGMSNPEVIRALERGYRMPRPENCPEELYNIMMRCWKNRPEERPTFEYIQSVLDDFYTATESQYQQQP
fyn_human FYN, sequence (P06241 whole entry, looked up): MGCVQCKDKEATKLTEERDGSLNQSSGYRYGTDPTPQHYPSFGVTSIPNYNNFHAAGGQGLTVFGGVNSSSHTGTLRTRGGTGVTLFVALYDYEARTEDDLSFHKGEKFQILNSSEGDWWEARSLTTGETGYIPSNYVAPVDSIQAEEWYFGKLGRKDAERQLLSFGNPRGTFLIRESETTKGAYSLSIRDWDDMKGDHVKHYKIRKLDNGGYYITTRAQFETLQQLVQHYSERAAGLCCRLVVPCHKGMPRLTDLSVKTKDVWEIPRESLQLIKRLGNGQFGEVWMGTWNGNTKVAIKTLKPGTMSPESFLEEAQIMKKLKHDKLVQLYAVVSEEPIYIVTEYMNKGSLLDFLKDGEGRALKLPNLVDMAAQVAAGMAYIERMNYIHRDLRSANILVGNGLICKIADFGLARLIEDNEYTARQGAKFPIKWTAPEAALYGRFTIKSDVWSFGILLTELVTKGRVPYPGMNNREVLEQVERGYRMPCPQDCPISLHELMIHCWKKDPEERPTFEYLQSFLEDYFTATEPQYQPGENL
lck_human LCK, sequence (P06239 whole entry, looked up): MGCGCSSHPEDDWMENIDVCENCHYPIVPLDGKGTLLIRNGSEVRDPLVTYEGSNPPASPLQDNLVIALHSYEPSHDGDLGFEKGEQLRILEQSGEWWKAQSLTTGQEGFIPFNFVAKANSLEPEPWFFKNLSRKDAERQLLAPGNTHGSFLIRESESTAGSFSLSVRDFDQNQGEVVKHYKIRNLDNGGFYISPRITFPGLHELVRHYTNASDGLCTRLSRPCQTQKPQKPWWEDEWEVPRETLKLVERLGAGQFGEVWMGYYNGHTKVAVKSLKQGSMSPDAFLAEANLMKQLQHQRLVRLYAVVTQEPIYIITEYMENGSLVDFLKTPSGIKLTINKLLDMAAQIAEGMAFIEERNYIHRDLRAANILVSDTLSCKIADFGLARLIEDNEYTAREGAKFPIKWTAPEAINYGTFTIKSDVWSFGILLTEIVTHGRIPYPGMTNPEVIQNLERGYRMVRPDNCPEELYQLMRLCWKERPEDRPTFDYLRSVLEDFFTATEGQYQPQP

Genome polyprotein (Hepatitis C virus genotype 1b (isolate Con1) (HCV)), Q9WMX2 P2322A;P2325A;P2326A
disrupting interaction: all assays above
